# ± gives the uncertainty stated by the source.
# Experiment: amyloid nucleation score (Sup35N fusion, yeast selection) (log enrichment); library NNK1; higher = more nucleation; inactive = no reads after selection
# Outline: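 The nucleation score equals the log enrichment of output over input reads from DiMSum, centred on the mode score of non-aggregating sequences. It was computed only for sequences with 100 or more input reads. The reads came from Illumina sequencing of plasmid inserts from psi-negative yeast expressing Sup35N fused to peptides of 20 random codons, induced with 100 μM copper sulfate for 24 hours and grown 7 days at 30°C without adenine and uracil.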
row,Substance,amyloid nucleation score
1,SPYGALFLDQLFYYQGADRG,1.05 ± 0.84
2,SQCLMKGHCKT,0.286 ± 0.66
3,SQIDYNDSCWNLGNP,0.164 ± 0.39
4,SQLFYAILSIHYWCVTFFRC,0.642 ± 0.33
5,SQPSMPNSVGGDTFG,-0.658 ± 0.49
6,SQRNLHTTYTYVAYRDYAER,0.957 ± 0.29
7,SQWALKITFYKMVAL,-0.171 ± 1.1
8,SRAINVSVMWVRFS,2.81 ± 0.13
9,SRGSVCIAMHLAC,0.001 ± 0.37
10,SRGVAALYSSNI,-0.278 ± 0.35
11,SRIIGMSRCCIGHRYMYMKT,-0.598 ± 1.4
12,SRLGLSSDY,0.092 ± 0.33
13,SRLTFVVVWDSSVVHIRMTG,3.46 ± 0.12
14,SRLWSSCHCHLAAYSVIHDD,inactive
15,SRLWVFD,0.314 ± 0.79
16,SRMLPVMFSGP,-1.06 ± 0.89
17,SRVLSCEGWLK,-0.051 ± 0.9
18,SRYKTPSVDGVFCSALRGSG,0.301 ± 0.61
19,SSCVRN,-0.153 ± 0.57
20,SSEDYALVLRSSGALVCSCL,0.418 ± 1
21,SSETCTK,-0.024 ± 0.55
22,SSFDMRDILYLSSNILRSRM,-0.505 ± 0.35
23,SSFIAYASSDTWFTVKA,1.09 ± 0.36
24,SSFRKTLLMVIYARNEGCMS,0.471 ± 0.97
25,SSINMVVSPK,1.09 ± 0.3

row,Substance,amyloid nucleation score
1,SSIVKYSCLVVFFQRNHVIP,inactive
2,SSKEWLNADAVPGNGVEAIV,-0.338 ± 0.53
3,SSLPDAWVYLGSSWLEDHGR,0.461 ± 0.7
4,SSLWTFTHRSKVGRYDFMAV,-1.51 ± 1.1
5,SSMGPFLSV,0.014 ± 0.48
6,SSMSPTVYVVRR,0.163 ± 0.9
7,SSMVVVGRRNLSDWKEYYPM,-0.283 ± 0.45
8,SSPKTRMVEGVCCYFVGSIY,0.704 ± 1.2
9,SSRLLCYRSVGAFISVGNEV,0.675 ± 0.19
10,SSRNDLDVQYLTVDQRPSMP,1.66 ± 0.56
11,SSRYLSDSIKLAGWSIT,-1.39 ± 2.4
12,SSSFRCAFSSVA,0.994 ± 0.69
13,SSSLSKLVFWKYFCIDEGLS,0.491 ± 0.53
14,SSTRT,0.667 ± 0.97
15,SSTSSRCHTSANLVRLVNGR,0.714 ± 0.33
16,SSVFKRMWPLLFVIPRQMH,0.02 ± 0.43
17,SSVGKLGDPWL,-1.15 ± 0.53
18,SSVKTVDLNCI,-0.125 ± 0.37
19,SSYGKFDGKCLQHM,-0.157 ± 0.76
20,STFAPNTSFGTIEIRFWICV,-0.702 ± 1.1
21,STFCTSAISMSIGSIIVGLS,0.043 ± 0.62
22,STIGNVY,-0.586 ± 0.51
23,STLSMTHVASAAVWRLVMPR,1.41 ± 0.48
24,STLWKASVFKFCYICLYQQW,0.35 ± 0.95
25,STMVCHDFLAMMGSCMGLCL,-0.406 ± 0.96

row,Substance,amyloid nucleation score
1,STNLLDFVGKSYVNWKKFRT,0.104 ± 0.42
2,STSIDVWRSALLRVFGFTIY,0.171 ± 0.37
3,STTSMPDWLNVWVSRSSSVV,1.06 ± 0.28
4,STTVSIYWCRWGGSSLHDV,0.141 ± 1.4
5,STWIHQMRSMASAENFSCYS,-1.27 ± 0.63
6,SVENNTAPICNTKSSVSDSL,0.852 ± 0.93
7,SVFNGYQSLVICFLRVSACC,0.154 ± 1
8,SVFRSSVCLLANDGVFSMNV,0.355 ± 0.39
9,SVFSTEVCSTHAMILWKY,0.117 ± 1.4
10,SVFWAWCVADHTIIDQKSSL,0.391 ± 0.48
11,SVFYYILNPSEAVHEVSVTS,-0.564 ± 0.48
12,SVGDIFSMWSVCSSVNDRCK,0.415 ± 0.21
13,SVGQRSRAEPDVKLCSGNLG,inactive
14,SVHKSMKSDINMACHAKR,1.04 ± 0.6
15,SVIFWMGRRMLLLACVPESA,-0.128 ± 0.81
16,SVKGLYLIDVLLSYGLTFGM,-0.608 ± 0.53
17,SVKTLLVRGILSLSIGFYMS,0.294 ± 0.52
18,SVLSMLIWYKPHREGSLN,0.812 ± 1.1
19,SVLWCPRCRYCKFAGVRTWK,-0.398 ± 0.97
20,SVMLLQLYMCLINFPNIPRT,1.6 ± 0.44
21,SVRVI,0.105 ± 0.73
22,SVRVMVLFWIKHCRLLWGRH,-0.405 ± 1.7
23,SVSLTNGVAEADKRYASAWL,-0.093 ± 0.31
24,SVTEVFYGKSVFLTFVFGIF,0.292 ± 0.31
25,SVTRHALSNRSNGKIADCC,-0.306 ± 0.56

row,Substance,amyloid nucleation score
1,SVVRTMSLLATFLRV,-0.795 ± 1.6
2,SVWIKSST,-0.285 ± 1.4
3,SVYRSVRGNRCWGLKIIMPG,-0.101 ± 1.1
4,SVYSVAFR,0.184 ± 0.78
5,SVYTNVLDTTNQGTKQNGPR,1.01 ± 0.47
6,SWDPNVSFALL,2.93 ± 0.25
7,SWFKSWSPKALSARIGRVYL,-0.176 ± 0.55
8,SWFSRMGTCYDFNSKWSCLL,0.654 ± 0.66
9,SWIANRRRFAL,3.64 ± 0.15
10,SWLDLNLIDHQAFAFSSFGL,-0.043 ± 0.45
11,SWMKSLLFVFGLTCQMRECV,-0.544 ± 0.61
12,SWQAVCAMSCCLW,8.628 ± 0.051
13,SWQPECCTVQTLSSKSEISH,-0.158 ± 1.6
14,SWRFDCYDRTWYNMYLEHLS,0.232 ± 0.23
15,SWRLRIIGEWRAFGDNMDSR,2.75 ± 0.15
16,SWWEFECETS,inactive
17,SWYLMIKVIETVSGVTGWVG,2.39 ± 0.12
18,SWYVVG,-0.373 ± 0.97
19,SYDSRNASLVIIISWVMQPL,0.992 ± 0.16
20,SYFRFVLYN,0.052 ± 1.1
21,SYGLCMMAFLSLDAS,0.517 ± 0.28
22,SYGWCCTNYNSFVWTYPLTK,5.79 ± 0.06
23,SYGYSMLAGVWT,0.057 ± 1.1
24,SYLGTHRFTECILDRVCTLQ,0.125 ± 1.4
25,SYLKS,-0.4 ± 0.63

row,Substance,amyloid nucleation score
1,SYNDQSVAYCVLIAETVWYC,7.742 ± 0.055
2,SYPSGVLDSNNPVLARGLAQ,-0.227 ± 0.41
3,SYPTALLKSVLFPLVVI,-0.463 ± 0.26
4,SYSEFSVEGFKGHVGAYGG,-0.136 ± 0.29
5,SYSEYPHVEYLLLFSMTQWN,0.43 ± 0.34
6,SYSFAWGS,1.82 ± 0.45
7,SYSSVVSVYFLQIYFF,4.05 ± 0.054
8,SYTVFCRVWYDSHRFM,-0.066 ± 0.45
9,SYVFDKGFIVNVITRCRKKM,1.44 ± 0.34
10,SYVIGNTGGSIKSEARGWDI,0.071 ± 0.35
11,SYWCLRAYLRLWLL,-0.164 ± 0.42
12,TADFLERRDMKYLHM,-0.361 ± 1.7
13,TAIRLVQS,-0.283 ± 0.44
14,TAMRSHLSVPSNVTLPCIKH,0.082 ± 0.46
15,TARFINVDVLSPW,1.32 ± 0.28
16,TARFLTKFAPGQSMNAYRCG,-0.033 ± 0.6
17,TARYTGGNTNIRSGKFLVWI,0.075 ± 0.35
18,TAVTCLL,-0.175 ± 1.2
19,TCDRVNAIVEFWRCR,1.46 ± 0.12
20,TCFGL,-0.702 ± 1.2
21,TCGSYV,0.215 ± 0.42
22,TCRFIGEYLRIRYT,0.367 ± 0.58
23,TCTYVYFLCSSIYARNITFM,8.838 ± 0.057
24,TCVDAVVLM,0.063 ± 0.62
25,TDFMFFWGDFMVTYTAVVCR,-0.096 ± 0.44

row,Substance,amyloid nucleation score
1,TDLAHLSVSMFDNFSRELVL,-0.323 ± 1.6
2,TDLLWKTSLLPNVY,1.71 ± 0.36
3,TDNDLVHYCTM,0.029 ± 0.59
4,TDSSKGRGARRGGSNSSHSW,-0.419 ± 0.61
5,TDWFSSMLEN,0.291 ± 0.3
6,TEAFRSRAFFGWWRSMCRRW,0.112 ± 0.87
7,TEFERFFKRDGYWGSRSYSR,0.221 ± 0.59
8,TENCDLCKQLAAVLC,-0.812 ± 0.93
9,TEQYCS,0.404 ± 1
10,TFACGKYVVPFCIYVDR,-0.059 ± 0.34
11,TFEALLTVDSYYSFSLVP,1.21 ± 0.4
12,TFGGHNVAGASMHGSFGGSL,0.242 ± 0.3
13,TFHAHTLWQGAQVIRQSETR,0.053 ± 0.47
14,TFIKNVTNRVHYGNALTHLG,-0.204 ± 0.66
15,TFKRYI,1.28 ± 0.56
16,TFLSTLIALISRFSRSESWM,1.24 ± 0.93
17,TFLWC,0.462 ± 0.4
18,TFNGFFCRCPSFKIYFHEVL,0.825 ± 0.24
19,TFQNVLLLGSLVWNNNKS,0.24 ± 0.55
20,TFSHNIIRSCLTKESVSFP,inactive
21,TFSMSQNWVLNCAYLVIGYH,4 ± 0.14
22,TFSRRASDFEVNV,-1.25 ± 2.7
23,TFTSLNNVVYIDISDTSDKN,3.81 ± 0.073
24,TFVYLCVAHS,1.07 ± 0.53
25,TFYGY,-0.487 ± 1.4

row,Substance,amyloid nucleation score
1,TFYYPINFHTLGLYKLVVML,0.589 ± 0.33
2,TGCCFYVSDHF,7.88 ± 0.071
3,TGCRGSVMSFDMLFSYILYL,0.205 ± 0.26
4,TGKSRDNRNVDGNL,0.063 ± 0.38
5,TGMGGV,0.177 ± 1.2
6,TGNCAMFPTWLHVIPFSQY,3.1 ± 0.14
7,TGNGRWVDFFRYRYGLKSRS,inactive
8,TGSMVFLMVVAGSCLFGLSE,0.652 ± 0.24
9,TGYFNTRVWLDRLDYVLETN,-0.44 ± 0.29
10,THYYCVLTGKITRRVLYILL,-1.13 ± 0.67
11,TIFLINIPANFSMGMLHAHR,0.303 ± 0.86
12,TIFNLLPMGC,0.975 ± 0.58
13,TIFTPNIR,0.132 ± 0.66
14,TISAI,0.142 ± 0.92
15,TISILCQYQVMGTIFIYVVQ,1.66 ± 0.13
16,TKALLQEVPIT,0.345 ± 1.2
17,TKFIE,1.2 ± 0.37
18,TKIGKYKFAYCNAIAGARVE,0.766 ± 0.87
19,TKIVFIVL,6.02 ± 0.084
20,TLCYYLVWRR,0.076 ± 0.29
21,TLDLTHNLCLG,0.491 ± 0.37
22,TLDRWTVWDLR,0.275 ± 0.32
23,TLGAVHTVHVRFGESSNVFL,0.055 ± 0.74
24,TLGSIGLAIGRSTTGGRS,0.51 ± 0.9
25,TLHYRWECVLCPACRYGLSD,1.14 ± 0.68

# Reference: the supplement of paper PMC12042874
